We go through one variant from IntAct's records for PubMed 25680527.

To fix the notation:
B1: Pirin (Homo sapiens), O00625 (parent)
chain: MGSSKKVTLSVLSREQSEGVGARVRRSIGRPELKNLDPFLLFDEFKGGRPGGFPDHPHRGFETVSYLLEGGSMAHEDFCGHTGKMNPGDLQWMTAGRGILHAEMPCSEEPAHGLQLWVNLRSSEKMVEPQYQELKSEEIPKPSKDGVTVAVISGEALGIKSKVYTRTPTLYLDFKLDPGAKHSQPIPKGWTSFIYTISGDVYIGPDDAQQKIEPHHTAVLGEGDSVQVENKDPKRSHFVLIAGEPLREPVIQHGPFVMNTNEEISQAILDFRNAKNGFERAKTWKSKIGN
partner: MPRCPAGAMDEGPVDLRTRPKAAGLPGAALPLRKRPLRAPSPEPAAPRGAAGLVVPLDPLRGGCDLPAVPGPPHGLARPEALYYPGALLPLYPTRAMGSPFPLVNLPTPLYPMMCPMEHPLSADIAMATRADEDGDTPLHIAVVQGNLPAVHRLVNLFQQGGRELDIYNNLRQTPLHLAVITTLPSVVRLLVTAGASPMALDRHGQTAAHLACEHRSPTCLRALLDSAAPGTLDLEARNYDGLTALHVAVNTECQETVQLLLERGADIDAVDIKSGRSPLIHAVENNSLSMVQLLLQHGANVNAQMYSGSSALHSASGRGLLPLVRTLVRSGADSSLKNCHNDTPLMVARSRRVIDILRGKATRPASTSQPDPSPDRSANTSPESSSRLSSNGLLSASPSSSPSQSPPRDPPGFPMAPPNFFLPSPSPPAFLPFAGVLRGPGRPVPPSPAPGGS

Variants of B1 are the subject of this test. The settings on record: with bcl3_human BCL3, P20749.
Take E103A: the “effect of a mutation on the interaction” value is listed as “disrupting interaction”.
